Measurements: paper doi:10.1101/2023.01.23.525297
Where two headings read alike, the source gives them in different places.

What was measured:
[1] = molecular target: noumeavirus NMV_189 (noumeavirus)
[2] = molecular target: noumeavirus NMV_189 (noumeavirus); assay: crystal structure
[3] = molecular target: zamilon vitis Zav_19 (zamilon vitis virophage)
[4] = molecular target: zamilon vitis Zav_19 (zamilon vitis virophage); assay: crystal structure

| Substance | stoichiometry N [1] | stoichiometry N [2] | stoichiometry N [3] | stoichiometry N [4] |
| --- | --- | --- | --- | --- |
| noumeavirus NMV_189 (natural protein) | 3 | 3 |  |  |
| zamilon vitis Zav_19 (natural protein) |  |  | 3 | 3 |
